Substrate in data set [1]: CC(=O)N[C@@H](CCC(=O)O)C(=O)N[C@@H](C)C(=O)N[C@@H](CC(C)C)C(=O)N1CCC[C@H]1C(=O)N[C@@H](CCCCN)C(=O)N[C@@H](CCCCNC(=O)CCCCCCCCCCNC(=O)c1ccccc1N)C(=O)N[C@@H](Cc1ccc(O)c([N+](=O)[O-])c1)C(=O)NCC(=O)NCC(N)=O
The data set is described as follows: purified protein, by the assay type. To be noted: other: Sirt2, measured using fluorescence spectrophotometer (footnote a), 0.5 mM NAD+, 37 °C.
Description: (§3) Each reaction mixture contained assay-buffer, 0.5 mM NAD^+ and various peptide concentrations (0.1–100 μM) and was preincubated for 5 minutes at 37 °C. The reaction was started by adding human sirtuin (0.1–0.5 μM) and observed for 5–10 minutes. Product formation could be monitored by increase of relative fluorescence. This signal was converted into product concentration via calibration lines. The slope of the linear regression of product formation against time yielded the reaction velocity rates in μM/s. KM and kcat were obtained by non-linear regression according to Michaelis-Menten. All measurements were done in duplicates. For determination of reaction velocity rates in μM/s calibration lines were necessary. […] The reaction mixture was analyzed with HPLC, to control if the entire peptide substrate was turned to product.
(§4) The reactions (total volume 100 μl) were measured in black low-binding 96-well microtiter plates (NUNC). Assay-buffer, 500 μM NAD^+ and 0.07–200 μM peptide substrate were pre-incubated at 37 °C for 5 min. The reaction was started by adding human sirtuin (0.01–0.5 μM). The signals were converted into product concentration via calibration lines and the resulting data were evaluated as described above (single fluorescence measurement). […] All measurements were done in duplicates. The reaction mixture for the calibration lines was prepared as described for the single fluorescence measurements.

Substrate in data set [2]: COc1ccc2c(C[C@H](NC(=O)[C@H](CCCCNC(=O)CCCCCCCCCCNC(=O)c3cc([N+](=O)[O-])ccc3N)NC(=O)[C@H](CCCCN)NC(=O)[C@@H]3CCCN3C(=O)[C@H](CC(C)C)NC(=O)[C@H](C)NC(=O)[C@H](CCC(=O)O)NC(C)=O)C(=O)NCC(=O)NCC(N)=O)cc(=O)oc2c1
The data set is described as follows: purified protein, by the assay type. Conditions: other: MTPR (microtiter plate reader); Sirt2; 37.0 °C.
Description: as §3, §4

Substrate in data set [3]: CC(=O)N[C@@H](CCC(=O)O)C(=O)N[C@@H](C)C(=O)N[C@@H](CC(C)C)C(=O)N1CCC[C@H]1C(=O)N[C@@H](CCCCN)C(=O)N[C@@H](CCCCNC(=O)CCCCCNC(=O)CCCCCNC(=O)c1ccccc1N)C(=O)N[C@@H](Cc1ccc(O)c([N+](=O)[O-])c1)C(=O)NCC(=O)NCC(N)=O
Description: purified protein, by the assay type. Conditions: other: Sirt2; measured using MTP fluorescence reader (footnote b); 37.0 °C.
Description: as §3, §4

Substrate in data set [4]: CC(=O)N[C@@H](CCC(=O)O)C(=O)N[C@@H](C)C(=O)N[C@@H](CC(C)C)C(=O)N1CCC[C@H]1C(=O)N[C@@H](CCCCN)C(=O)N[C@@H](CCCCNC(=O)CCCCCCCCCCNC(=O)CN1C(=O)c2cccc3c(N(C)C)ccc(c23)C1=O)C(=O)N[C@@H](Cc1ccc(O)c([N+](=O)[O-])c1)C(=O)NCC(=O)NCC(N)=O
Description: purified protein, by the assay type. Conditions: other: MTPR (microtiter plate reader); Sirt2; 37.0 °C.
Description: as §3, §4

Substrate in data set [5]: CC(=O)N[C@@H](CCC(=O)O)C(=O)N[C@@H](C)C(=O)N[C@@H](CC(C)C)C(=O)N1CCC[C@H]1C(=O)N[C@@H](CCCCN)C(=O)N[C@@H](CCCCNC(=O)CCCCCCCNC(=O)c1ccccc1N)C(=O)N[C@@H](Cc1ccc(O)c([N+](=O)[O-])c1)C(=O)NCC(=O)NCC(N)=O
The data set is described as follows: purified protein, by the assay type. Conditions: other: Sirt2; measured using MTP fluorescence reader (footnote b); 37.0 °C.
Description: as §3, §4

Substrate in data set [6]: CC(=O)N[C@@H](CCC(=O)O)C(=O)N[C@@H](C)C(=O)N[C@@H](CC(C)C)C(=O)N1CCC[C@H]1C(=O)N[C@@H](CCCCN)C(=O)N[C@@H](CCCCNC(=O)CCCCCNC(=O)c1ccccc1N)C(=O)N[C@@H](Cc1ccc(O)c([N+](=O)[O-])c1)C(=O)NCC(=O)NCC(N)=O
The data set is described as follows: purified protein, by the assay type. To be noted: other: Sirt2, measured using fluorescence spectrophotometer (footnote a), 0.5 mM NAD+, 37 °C.
Description: as §3, §4

Substrate in data set [7]: CC(=O)N[C@@H](CCC(=O)O)C(=O)N[C@@H](C)C(=O)N[C@@H](CC(C)C)C(=O)N1CCC[C@H]1C(=O)N[C@@H](CCCCN)C(=O)N[C@@H](CCCCNC(=O)CCCCCCCCCCNC(=O)c1ccccc1N)C(=O)N[C@@H](Cc1ccc(O)c([N+](=O)[O-])c1)C(=O)NCC(=O)NCC(N)=O
Description: HPLC based activity assay. It counts as biochemical, human. Conditions: other: HPLC; Sirt2; pH 7.8; 37.0 °C. The procedure: (§1) For the determination of kinetic constants for all sirtuin mediated reactions solutions containing 20 mM TRIS/HCl pH 7.8, 150 mM NaCl, 5 mM MgCl2 (assay-buffer), 500 μM NAD^+ and varying substrate concentrations (0.5–100 μM) were used. Deacylation was started by adding human sirtuin to reach a final concentration of 0.01–0.5 μM. Enzyme-catalyzed reaction was stopped using TFA (1% final concentration) after 1 min to 180 min of incubation at 37 °C depending on substrate reactivity. The cleavage rate of the different TNFα peptide derivatives was analyzed using analytical reversed phase HPLC. 40 to 80 μl of compounds or reaction solutions were injected and separated using a linear gradient from 5% to 95% solvent B within 6min. The product and substrate peaks were quantified using absorbance at 220 nm or 365 nm (absorption of 3-Nitrotyrosyl moiety). The peak areas were integrated and converted to initial velocity rates calculated from the ratio of product area to total peak area. Linear regression of conversions plotted against time yielded reaction rates in μM/min (relative conversion below 20% of substrate). Non-linear regression according to Michaelis-Menten of the reaction rates at different substrate concentrations yielded KM- and kcat-values using the program SigmaPlot 8 (Systat Software, San Jose, USA). All measurements were done in duplicates.
(§2) The reactions were performed with 0.1- 0.5 µM sirtuin, 500 µM NAD^+ and 50µM 13/16. All reactions were done in duplicates (n=2).

Substrate in data set [8]: CCCCCCCCCCCCCC(=O)NCCCC[C@H](NC(=O)[C@H](CCCCN)NC(=O)[C@@H]1CCCN1C(=O)[C@H](CC(C)C)NC(=O)[C@H](C)NC(=O)[C@H](CCC(=O)O)NC(C)=O)C(=O)N[C@H](C(=O)NCC(=O)NCC(N)=O)[C@@H](C)O
The data set is described as follows: HPLC based activity assay. It counts as biochemical, human. Conditions: other: HPLC; Sirt2; pH 7.8; 37.0 °C. The procedure: as §1, §2

Substrate in data set [9]: CC(=O)N[C@@H](CCC(=O)O)C(=O)N[C@@H](C)C(=O)N[C@@H](CC(C)C)C(=O)N1CCC[C@H]1C(=O)N[C@@H](CCCCN)C(=O)N[C@@H](CCCCNC(=O)CCCCCNC(=O)c1ccccc1N)C(=O)N[C@@H](Cc1ccc(O)c([N+](=O)[O-])c1)C(=O)NCC(=O)NCC(N)=O
Description: HPLC based activity assay. The format is biochemical, human. Conditions: other: HPLC; Sirt2; pH 7.8; 37.0 °C. The procedure: as §1, §2

Values joined by “and” are separate entries in the source; they are usually repeats but may differ in a detail not shown here. Equal values may be shown once.

B1: Sirt2 (Homo sapiens) (protein)
chain: MAEPDPSHPLETQAGKVQEAQDSDSDSEGGAAGGEADMDFLRNLFSQTLSLGSQKERLLDELTLEGVARYMQSERCRRVICLVGAGISTSAGIPDFRSPSTGLYDNLEKYHLPYPEAIFEISYFKKHPEPFFALAKELYPGQFKPTICHYFMRLLKDKGLLLRCYTQNIDTLERIAGLEQEDLVEAHGTFYTSHCVSASCRHEYPLSWMKEKIFSEVTPKCEDCQSLVKPDIVFFGESLPARFFSCMQSDFLKVDLLLVMGTSLQVQPFASLISKAPLSTPRLLINKEKAGQSDPFLGMIMGLGGGMDFDSKKAYRDVAWLGECDQGCLALAELLGWKKELEDLVRREHASIDAQSGAGVPNPSTSASPKKSPPPAKDEARTTEREKPQ
notes: made in house
Consider B1, for which the Km is 0.1 ± 0.02 µM and 0.12 ± 0.02 µM in [1]; 0.8 ± 0.1 µM in data set [2]; 15.3 ± 2.7 µM in data set [3]; 7.5 ± 1.5 µM in data set [4]; 1.2 ± 0.1 µM in data set [5]; 17.7 ± 1.5 µM in data set [6]. In addition, the Km in [7] came to 0.3 ± 0.04 µM; in data set [8], 0.7 ± 0.1 µM; in data set [9] it was 26.8 ± 2.7 µM. Besides, the kcat is listed as 9.6∙10^-2 ± 0.5∙10^-2 s^-1 in data set [2]; 2.6∙10^-3 ± 0.2∙10^-3 s^-1 in [4]; 3.9∙10^-2 ± 0.1∙10^-2 s^-1 in data set [7]; 3.7∙10^-2 ± 0.1∙10^-2 s^-1 in data set [8]; 3.9∙10^-3 ± 0.2∙10^-3 s^-1 in data set [9]. In addition, the kcat/Km in [2] is 1.25∙10^5 M^-1s^-1; in [3], 156 M⁻¹ s⁻¹; in data set [4], 3.42∙10^2 M^-1s^-1; in data set [5] it was 38600 M⁻¹ s⁻¹; in data set [7] it was 1.18∙10^5 M^-1s^-1; in data set [8] it was 5.30∙10^4 M^-1s^-1. The kcat/Km in [9] was 1.46∙10^2 M^-1s^-1.

These data come from publication PMC4778124, “A continuous sirtuin activity assay without any coupling to enzymatic or chemical reactions” (Scientific Reports, 2016).
